Measurements published in the RNAGym collection of RNA variant scans (doi:10.1073/pnas.2313332121).

B1: TPR t1 (parent)
chain: GACCAAUCUGCCCUCAGAGCUCGAGAACAUCUUCGGAUGCAGAGGAGGCAGGCUUCGGUGGCGCGAUAGCGCCAACGUCCUCAACCUCCAAUGCAUCCCACCACAUGAUGAUGCCUGAAGAGCCUUGGUUUUUUG

Variants of: B1
Test: polymerase ribozyme fitness, log enrichment relative to wild type (log ratio); higher = more active; in vitro selection for triplet polymerase activity
Procedure, shortened: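 Fitness is a logarithmic measure of how a genotype enriched relative to the wild type, with replicate averages weighted by inverse variance. The logarithm uses base 2, and enrichment came from Illumina sequencing of input and output libraries. Those libraries were PCR-built, transcribed mutants of each subunit of a heterodimeric triplet polymerase ribozyme, passed through one triplicate in vitro selection round that included frozen incubation at −7 °C, gel excision of extended constructs and streptavidin-bead capture. Genotypes were kept only if they had ≥10 input reads and ≥1 read per output.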

Variant	polymerase ribozyme fitness (log ratio)
GACCAAUCUGCCCUCAGCGCUCGAGAACAUCUUCGGAUGCAUAGGAGGCAGGCUUCGGUGGCGCGAUACCGCCAACGUCCUCAACCUCCAAUGCAUCCCACCACAUGAUGAUGCCUGAAGAGCCUUGGUUUUUUG [A18C G42U G69C]	-3.2
GACCAAUCUGCCCUCAGAGCUCGAGAACAUCUACGGAUGCAGAAGAGGCAAGCUUCGGUGGCACGGUAGCGCCUACGUCCUCAACCUCCAAUGCAUCCCACCACAUGAUGUUGCCUGAAGAGCCUUGGUUUUUUG [U33A G44A G51A G63A A66G A74U A111U]	-7.25
GACCAAUCUGCCCUCAGAGCUCGAGAACAUCUUCGGAUGCAGAGGAGGCAGGCUUCGGUGGCGCGAUAGCGCCAACGUCCUCAACCUCCAUUGCAUCCCACCACAUGAUGAAGCCUCAAGAGUCUUGGUUUUUAG [A91U U112A G117C C123U U134A]	-2.54
GACCAAUCUGCCCUCAGAGCUCGAGAACAUCUUCGUAUGAAGAGGAGGCAGGCUUCGGUGGCGCGAUAGCGCCAACGUCCACAACCUCCAAUGCAUCCCACCACAUGAUGAUGCCUGAACAACCUUGGUUUUUUG [G36U C40A U81A G120C G122A]	-4.24
GACCAAUCUGCCCUCAGAGCUCGAGAACAUCUUCGGAUGCAGAGGAGGCAGGCUUCGGUGGCGCGAUAGCGCCAACGUCCUCAACCUCCAAUCCAUCCCACCACAUGAUGAUGCCUGAAUAGCCUUGGUUUUUUG [G93C G120U]	-1.78
GACCAAUCUGCCCUCAGAGCUCGAGAACAUCUUCGGAUGCAGAGGAGGCAGGCUUCGGUGGCGCGAUAGCGCCAACGUCCUCAACCUUCAAUGCAUCCCACCACAUGAUUAUGCCUGAAGAGCCGUGGUUUUUUG [C88U G110U U125G]	-2.46
GACCAAACUGCCUUCAGACCUCGAGAACAUCUUCGGAUGCAGAGGAGGCAGGCUUCGGUGGCGCGAUAGCGCCAACGUCCUCAACCUCCAAUGCAUCCCACCACAUGAUGAUUCCUGAAGAGCCUUGGUUUUUUG [U7A C13U G19C G113U]	-1.96
GACCAAUCUGCCCUCAGAGCUCGAGAACAUCUUCGGAUGCAGAGGAGGCAGGCUUCGGUGGCGCGAUAGCACCAACGUCCUCAACCUCCAAUGCAACCCACCACAUGAUGAUGCCUGAAGAGCCUUGGUUUUUUG [G71A U96A]	-2.13
GACCAAUCUCCCCUCAGAGCUCGAGAACAUCUUCGGAUGCAGAGGAGGCAGGCUUCGGUGGCGCGAUAGCGCAAACGUCCUCAACCUCCAAUGCAUCCCACCACAUGAUGAUGCCUGAAGAGCCUUGAUUUUUUG [G10C C73A G128A]	-2
GACCAAUCUGCCCUCAGAGCUCGAGAACAUCUUCGGAUGCAGAGGAGGCAGGCUUCGGUGGCGCGAUAGCGGCAACGUCCUCAACCUCCAAUGCAUCCCACCACAUGAUGAUGCCUGAAGAGUCUUGGUUUUUUG [C72G C123U]	0.62
GACCAAUCUGCCCUCAGAGCUCGAGAACAUCUUCGGAUGCAGAGGAGGCAGGCGUCGGUGGAGCGAUAGCGCCAACGCCCUCAACCUCCAAUGCAUCCCACCACAUGAUGAUGCCUGAAGAGUCUAGGUUUUUUG [U54G C62A U78C C123U U126A]	-6.39
GACCAAUCUGCCCUCAGAGCUCGAGAACAUCUUCGGAUGCAGAGGAGGCAGGCUUCGGUGGCGCGAUAGCGCCAACGUCCUCAACCUCCAAUGCAUCCCACCACAUGAUGAUGCCUGAACUGCCUUGGUUUUUUG [G120C A121U]	2.44
GACCAAUCUGCCCUCAGAGCUCGAGAACAUCUUCGGAAGCAGAGGAGGCAGGCUUCGGUGGCGCGAUAGCGCCAACGUCCUCAACCUCCAAUGCAUCCCACCACAUGAUGAUGCCUGAAGAGCCUUGGUUUUAUG [U38A U133A]	-0.815
GAUCAAUCUGCCCUCAGAGCUCGAGAACAUCUUCGGAUGCAGAGGAGGCAGGCUUCGGUGGCGCGAUAGCGCCAACGUCCUCAACCUCCAAUGCAUCCCACCACAUGAUGAUGCCUGAAGAACCUUGGUUUUUUG [C3U G122A]	-1.01
GACUAAUCUGGCCUCAGAGCUCGAGAACAUCUUCGGAUGCAGAGGAGGCAGGCAUCGGUGGCCCGAUAGCGCCAACGUCCUCAACCUCCAAUGCAUCCCAACACAUGAUGACGCCUGAAGAGCCUUGGUUUUUUG [C4U C11G U54A G63C C101A U112C]	0.841
GACCAAUCUGCCCUCAGAGCUCGAGAACAUCUUCGUAUGCAUAGGAGGCAGGCUUCGGUGGCGCGAUAGCGCCAACGUCCUCAACCUCCAAUGCAUCCCACCACAUGAUGAUGCCUGAAGAGCCUUGGUUUUUUG [G36U G42U]	-3.46
GACCAAUCUGCCCUCAGAGCUCGAGAACAUCUUCGGAUGCAGAGGAGGCAGGUUUCGGUGGCGCGAUAGCGCCAACGUCCUCAACCUCCAAUGCAUCCCACCACAUGAUGAUCCCUGAAGAGCCUUGGUUUUUUG [C53U G113C]	-1.77
GACCAAUCUGCCCUCAGAGCUCGAGAACAUCUUCGGUUGCAGAGGAGGCAGGCUUCAGUGGCGCGCUAGCGCCAACGUCCUCAACCUCCAAUGCAUCCCACCACAUGAUGAUGCCUGAAGAGCCUUGGUUUUUUG [A37U G57A A66C]	-4.07
GACCAAUCUGCCAUCAGAACUCGAGAACAUCUUCGGAUGCAGAGGAGGCAGCCUUCGGUGGCGCGAUAGCGCCAAGGUCCUCAACCUCCAAUGCAUCCCACCACAUGAUGAUGCCUGUAGAGCAUUGGUUUUAUG [C13A G19A G52C C76G A118U C124A U133A]	-4.56
GACCAAUCUGCCUUCAGAGCUCGAGAACAUCUUCGGAUGCAGAGGAGGCAGGCUUCGGUGGCGCGAUAGCGCGAACGUCCUCGACCUCCAAUGCAUCCCACCACAUGAUGAUGCCUGAAGAGCCUUGGUUUUUUG [C13U C73G A83G]	-1.22
GACCAAUCUGCCCUCAGAGCUCGAGAACCUCUUCGGAUGCAGAGGAGGCAGGUUUCGGUGGCGCGAUAGCGCCAACGUCUUCAACCUCCGAUGCAUCCCACCACAUGAUGAUGCCUGAAGAGCCUUGGUUUUUUG [A29C C53U C80U A90G]	-3.07
